Experimental data as given in article PMC8822709 (Journal of Biomedical Science, 2022).

Key:
[1] = target: T1, ENO1 recombinant protein (α-enolase) (Homo sapiens, UniProt P06733); experiment: ELISA; indirect ELISA; recombinant protein (5 μg/mL) coated in carbonate-bicarbonate pH 9.6, 07-IgG1 diluted and added at 37 °C for 1 h, HRP goat anti-human IgG, OD 450 nm; details: both partners purified
T1 construct: also called hENO1; rhENO1; source: recombinant protein

[2] = target: T2, ENO1 (Alpha-enolase), endogenous in RD cells (Homo sapiens (RD cells), UniProt P06733); experiment: affinity purification with mass spectrometry; details: one partner purified
T2 construct: also called α-enolase

PEG-precipitated EV-A71 = target: T3, PEG-precipitated EV-A71 (Enterovirus A71, stock strain …, UniProt Q9DY01); experiment: ELISA; details: both partners purified
T3 construct: also called EV-A71 protein; EV-A71 capsid proteins; source: PEG-precipitated EV-A71 (virus propagated in RD cells)

T2 sequence (P06733 whole entry): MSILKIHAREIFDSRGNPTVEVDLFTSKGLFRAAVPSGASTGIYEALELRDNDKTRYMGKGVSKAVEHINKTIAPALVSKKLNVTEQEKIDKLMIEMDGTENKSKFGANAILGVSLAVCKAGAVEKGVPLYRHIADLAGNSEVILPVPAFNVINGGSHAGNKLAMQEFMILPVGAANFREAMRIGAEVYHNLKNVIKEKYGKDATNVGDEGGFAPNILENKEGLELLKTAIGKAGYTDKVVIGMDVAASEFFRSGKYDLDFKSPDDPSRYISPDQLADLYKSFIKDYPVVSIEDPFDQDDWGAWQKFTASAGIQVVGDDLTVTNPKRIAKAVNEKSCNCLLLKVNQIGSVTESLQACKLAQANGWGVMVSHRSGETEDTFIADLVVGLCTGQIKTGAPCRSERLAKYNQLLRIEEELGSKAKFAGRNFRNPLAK
T1 sequence (P06733 whole entry): as above

B1: 07-human IgG1 antibody (antibody, V domains shown)
VH: EVQLLESGAVVKKPGESLKISCTGSGYVFRDYWVGWVRQMPGKGLEWLGMIYPDEFDIRYSPSFQGQVTISADKSIDTAYLQLSSLEASDTGIYYCARHGNTGCGGTMCYKSYLYYGMDVWGQGTTVTVS
VL: ELVLTQSPSVSVSPGQTASITCSGDKLGDKYACWYQQKPGQSPVLVIYQDNKRPSGIPERFSGSNSGNTATLTISGTRAMDEADYYCQAWDSSTCYVFGTGTKLTVL
notes: also called 07-IgG1; clone 07 recombinant antibody; source: ExpiCHO, co-transfected (pcDNA3.4 heavy and light chain), purified by protein A resin
**Q.** Does B1 bind [1]?
**A.** binds

**Q.** Does B1 bind [2]?
**A.** binds

**Q.** Does B1 bind (PEG-precipitated EV-A71)?
**A.** no binding
